Key:
HLA-B*07 (human) [1] = assay: UV peptide exchange ELISA; +++ = yield >50
HLA-B*07 (human) [2] = assay: UV peptide exchange ELISA; ++++ = yield >75%

peptide exchange yield (HLA-B*07 (human) [1]) | peptide exchange yield (HLA-B*07 (human) [2]) | Binder
50 to 75% |  | LPRGLSPARQL
 | > 75% | VPRPIFSQLYL
50 to 75% |  | VPRPTSTVGL
 | > 75% | FPNEVSVVL
 | > 75% | LPRIPFSTF

Source: patent US20200040057A1
